Results on three substances are retold here after article PMC11328107.

pIC50, pKd: −log10 of the molar value.

The target of assay [1] is transferrin receptor 1 (CD71), His‐tagged (UniProt P02786). Nature of the assay: BLI; Octet N1; His-tagged CD71 immobilised on Ni-NTA tip; HFn-Pep2-8 2.5–1580 nM; PBS with 0.02% Tween 20, 0.1% BSA, 0.05% NaN3; KD from plateau values (steady state).
Assay [2] has as its target proprotein convertase subtilisin/kexin type 9 (PCSK9) (UniProt Q8NBP7).
Assay [3] deals with His‐tagged PCSK9 of the CircuLex PCSK9‐LDLR in vitro binding assay kit (UniProt Q8NBP7). Nature of the assay: ELISA; CircuLex PCSK9-LDLR binding kit; LDLR-AB domain immobilised on the plate; His-tagged PCSK9 70 ng/mL alone or preincubated with HFn-Pep2-8 1–280 nM; 2 h; detected by biotinylated anti-His antibody. For orientation: An ELISA detects its analyte on a solid surface through an enzyme-linked reagent.

Assay [4] has as its target proprotein convertase subtilisin/kexin type 9 (PCSK9) (UniProt Q8NBP7). This is another data set of the same source.
The target of the next assay is PCSK9 (Homo sapiens) (UniProt Q8NBP7). As to conditions: cited from earlier work.
Chain of PCSK9 (Homo sapiens) (Q8NBP7 153-692): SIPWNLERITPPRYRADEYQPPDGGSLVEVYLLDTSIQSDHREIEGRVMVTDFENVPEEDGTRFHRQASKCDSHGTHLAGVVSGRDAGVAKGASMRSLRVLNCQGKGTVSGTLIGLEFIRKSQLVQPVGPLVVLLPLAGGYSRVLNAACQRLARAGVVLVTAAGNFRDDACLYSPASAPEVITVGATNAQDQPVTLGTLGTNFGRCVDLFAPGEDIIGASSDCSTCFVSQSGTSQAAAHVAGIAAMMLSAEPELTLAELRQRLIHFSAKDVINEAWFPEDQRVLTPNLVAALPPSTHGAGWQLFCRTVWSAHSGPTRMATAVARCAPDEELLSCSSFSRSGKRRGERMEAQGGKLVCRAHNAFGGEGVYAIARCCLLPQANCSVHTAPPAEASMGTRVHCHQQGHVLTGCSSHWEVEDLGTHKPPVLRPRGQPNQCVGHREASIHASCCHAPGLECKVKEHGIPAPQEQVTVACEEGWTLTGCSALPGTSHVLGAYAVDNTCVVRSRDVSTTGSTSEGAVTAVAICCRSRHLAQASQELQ

Chain of proprotein convertase subtilisin/kexin type 9 (PCSK9) (Q8NBP7 153-692): as above
Chain of transferrin receptor 1 (CD71), His‐tagged (P02786 whole entry): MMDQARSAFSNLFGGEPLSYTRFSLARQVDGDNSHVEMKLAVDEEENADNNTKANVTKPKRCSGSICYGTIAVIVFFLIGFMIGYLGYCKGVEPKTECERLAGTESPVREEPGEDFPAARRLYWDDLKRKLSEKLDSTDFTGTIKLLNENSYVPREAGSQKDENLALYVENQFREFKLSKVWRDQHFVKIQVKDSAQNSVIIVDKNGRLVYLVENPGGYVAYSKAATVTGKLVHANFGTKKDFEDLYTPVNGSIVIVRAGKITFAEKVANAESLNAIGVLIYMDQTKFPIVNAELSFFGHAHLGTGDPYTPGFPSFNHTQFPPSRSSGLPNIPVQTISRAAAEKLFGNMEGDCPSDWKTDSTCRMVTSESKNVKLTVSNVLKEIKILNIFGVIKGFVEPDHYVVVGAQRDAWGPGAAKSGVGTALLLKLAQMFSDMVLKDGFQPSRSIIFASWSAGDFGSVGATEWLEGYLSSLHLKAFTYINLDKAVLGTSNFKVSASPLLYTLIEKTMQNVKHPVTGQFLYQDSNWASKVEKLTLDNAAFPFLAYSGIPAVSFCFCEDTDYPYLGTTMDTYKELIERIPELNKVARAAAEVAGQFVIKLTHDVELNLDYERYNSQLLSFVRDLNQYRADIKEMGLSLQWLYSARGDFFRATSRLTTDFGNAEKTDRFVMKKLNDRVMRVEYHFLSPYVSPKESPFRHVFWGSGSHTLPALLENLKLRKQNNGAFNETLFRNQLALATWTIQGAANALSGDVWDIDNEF
Chain of His‐tagged PCSK9 of the CircuLex PCSK9‐LDLR in vitro binding assay kit (Q8NBP7 153-692): as the sequence (Q8NBP7 153-692) above

For “HFn‐Pep2‐8 (human H ferritin with Pep2‐8 and a four‐glycine linker fused to the N‐terminus of each subunit) (designed binder; other documents disagree on this pair)”, in assay [1], the negative-log Kd (pKd) (usually the negative decadic logarithm of the Kd, by convention in mol/L) was 7.57. Consider “HFn‐Pep2‐8 (human H ferritin with Pep2‐8 and a four‐glycine linker fused to the N‐terminus of each subunit) (designed binder)”, for which the Dil-LDL uptake by HepG2 cells (MFI) with 7 μg/mL PCSK9 plus 0.1 μM (81.12%) or 1 μM HFn-Pep2-8; blocks PCSK9 binding to LDLR in assay [2] came out at 117%. The negative-log IC50 (pIC50) (in general, −log10 of the IC50, conventionally taken in molar units) in assay [3] is 7.10. The LDLR at the plasma membrane of HepG2 cells (immunofluorescence, MFI) after 8 h with 7 μg/mL PCSK9 plus 0.1 or 1 μM HFn-Pep2-8; blocks PCSK9 binding to LDLR in assay [4] came to 90%.

For the substance Alirocumab, in the assay with PCSK9 (Homo sapiens), the pKd was 9.28.
